Assay results taken from paper PMC6910828.

Target: Cy3-labelled, prenylated Cdc42, wild type, GDP-bound
Assay: membrane extraction (wash-off) assay on supported lipid bilayers, TIRF; as above, GDI titrated between 0 and 20 µM; Koff of the GTPase from the membrane plotted against GDI concentration and fitted with a hyperbolic function (Kd, Vmax); apparent affinities

“Xenopus laevis RhoGDI E158/9Q (natural protein)” showed a fold reduction of the extraction of Cdc42:GDP against WT GDI of under 2 fold.
